Test results reported in article PMC9482650, “Quantitative fragmentomics allow affinity mapping of interactomes” (Nature Communications, 2022).

How the values were obtained:
Assay in all cases: holdup assay
Set-up in all cases: key: below the threshold = too weak to quantify, mostly under pKd 3.1 to 4
GIPC2, Q8TF65 = target: GIPC2, Q8TF65
Inadl_10, Q8NI35 = target: Inadl_10, Q8NI35
DLG2_2, Q15700 = target: DLG2_2, Q15700
PDLIM1, O00151 = target: PDLIM1, O00151
LIN7B, Q9HAP6 = target: T1, LIN7B, Q9HAP6
T1 sequence (Q9HAP6 88-185, limits assumed, looked up): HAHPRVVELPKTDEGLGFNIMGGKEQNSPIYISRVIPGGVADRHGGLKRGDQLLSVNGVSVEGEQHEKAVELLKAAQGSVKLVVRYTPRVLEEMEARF

PDZRN4_1, Q6ZMN7 = target: PDZRN4_1, Q6ZMN7
Chain of PDZRN4_1, Q6ZMN7 (Q6ZMN7 213-318): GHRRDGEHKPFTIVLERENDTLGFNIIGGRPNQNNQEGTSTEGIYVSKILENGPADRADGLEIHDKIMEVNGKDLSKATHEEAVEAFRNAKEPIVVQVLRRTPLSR

ARHGEF12, Q9NZN5-2 = target: ARHGEF12, Q9NZN5-2
Chain of ARHGEF12, Q9NZN5-2 (Q9NZN5 other isoform, or with tags, fused parts or gaps): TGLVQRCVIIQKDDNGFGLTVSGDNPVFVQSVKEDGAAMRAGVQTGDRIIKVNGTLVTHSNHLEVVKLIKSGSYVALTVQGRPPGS

RHPN1, Q8TCX5 = target: T2, RHPN1, Q8TCX5
T2 sequence (Q8TCX5 508-602, limits assumed, looked up): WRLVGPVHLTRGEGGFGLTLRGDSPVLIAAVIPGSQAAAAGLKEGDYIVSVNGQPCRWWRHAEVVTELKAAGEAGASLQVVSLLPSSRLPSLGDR

GRASP, Q7Z6J2 = target: GRASP, Q7Z6J2
Chain of GRASP, Q7Z6J2 (Q7Z6J2 96-193): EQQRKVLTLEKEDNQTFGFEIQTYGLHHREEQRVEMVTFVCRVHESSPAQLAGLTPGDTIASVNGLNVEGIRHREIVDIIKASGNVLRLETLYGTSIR

DLG1_2, Q12959 = target: DLG1_2, Q12959
Inadl_6, Q8NI35 = target: Inadl_6, Q8NI35
Chain of Inadl_6, Q8NI35 (Q8NI35 1058-1167): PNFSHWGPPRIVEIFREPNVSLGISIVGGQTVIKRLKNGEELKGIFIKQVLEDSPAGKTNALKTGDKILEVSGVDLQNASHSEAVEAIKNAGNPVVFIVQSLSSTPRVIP

TIAM2, Q8IVF5 = target: T3, TIAM2, Q8IVF5
T3 sequence (Q8IVF5 885-986, limits assumed, looked up): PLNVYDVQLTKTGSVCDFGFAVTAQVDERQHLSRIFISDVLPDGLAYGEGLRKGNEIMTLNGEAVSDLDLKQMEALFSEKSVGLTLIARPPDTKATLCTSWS

RADIL, Q96JH8 = target: T4, RADIL, Q96JH8
T4 sequence (Q96JH8 971-1071, limits assumed, looked up): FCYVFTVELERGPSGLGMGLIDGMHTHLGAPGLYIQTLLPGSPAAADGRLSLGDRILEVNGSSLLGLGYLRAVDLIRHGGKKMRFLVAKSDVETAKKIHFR

NHERF3_1, Q5T2W1 = target: T5, NHERF3_1, Q5T2W1
T5 sequence (Q5T2W1 4-100, limits assumed, looked up): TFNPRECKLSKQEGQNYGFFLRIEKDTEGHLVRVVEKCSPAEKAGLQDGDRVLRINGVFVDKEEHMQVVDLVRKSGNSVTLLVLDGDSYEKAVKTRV

DLG1_1, Q12959 = target: DLG1_1, Q12959
MAGI2_2, Q86UL8 = target: MAGI2_2, Q86UL8
Chain of MAGI2_2, Q86UL8 (Q86UL8 410-522): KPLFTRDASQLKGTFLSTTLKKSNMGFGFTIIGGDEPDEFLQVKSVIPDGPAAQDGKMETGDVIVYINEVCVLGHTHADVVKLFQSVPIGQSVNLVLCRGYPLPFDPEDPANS

MPP2, Q14168 = target: T6, MPP2, Q14168
T6 sequence (Q14168 180-250, limits assumed, looked up): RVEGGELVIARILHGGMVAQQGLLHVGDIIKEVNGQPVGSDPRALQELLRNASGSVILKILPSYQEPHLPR

APBA2_2, Q99767 = target: T7, APBA2_2, Q99767
T7 sequence (Q99767 654-744, limits assumed, looked up): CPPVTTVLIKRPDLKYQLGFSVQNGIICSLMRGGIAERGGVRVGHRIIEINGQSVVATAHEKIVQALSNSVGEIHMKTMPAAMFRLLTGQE

NHERF3_3, Q5T2W1 = target: T8, NHERF3_3, Q5T2W1
T8 sequence (Q5T2W1 238-333, limits assumed, looked up): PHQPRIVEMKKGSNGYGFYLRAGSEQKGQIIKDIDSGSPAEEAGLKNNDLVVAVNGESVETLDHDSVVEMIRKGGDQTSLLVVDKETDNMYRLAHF

ARHGAP21, Q5T5U3 = target: T9, ARHGAP21, Q5T5U3
T9 sequence (Q5T5U3 45-169, limits assumed, looked up): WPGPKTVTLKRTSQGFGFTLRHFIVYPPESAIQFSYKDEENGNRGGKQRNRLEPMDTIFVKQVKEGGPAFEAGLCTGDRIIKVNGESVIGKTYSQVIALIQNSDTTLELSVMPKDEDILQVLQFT

LDB3, O75112 = target: LDB3, O75112
Chain of LDB3, O75112 (O75112 1-94): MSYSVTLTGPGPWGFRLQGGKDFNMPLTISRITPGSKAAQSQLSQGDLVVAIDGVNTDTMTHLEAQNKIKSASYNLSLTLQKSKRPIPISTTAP

DLG5_1, Q8TDM6 = target: DLG5_1, Q8TDM6
Chain of DLG5_1, Q8TDM6 (Q8TDM6 617-713): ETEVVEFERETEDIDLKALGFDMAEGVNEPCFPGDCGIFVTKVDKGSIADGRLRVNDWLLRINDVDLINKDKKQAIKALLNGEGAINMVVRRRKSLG

Inadl_8, Q8NI35 = target: Inadl_8, Q8NI35
Chain of Inadl_8, Q8NI35 (Q8NI35 1425-1530): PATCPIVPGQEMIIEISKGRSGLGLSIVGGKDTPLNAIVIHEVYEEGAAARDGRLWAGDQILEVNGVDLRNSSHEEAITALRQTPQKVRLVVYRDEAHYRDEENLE

Inadl_2, Q8NI35 = target: Inadl_2, Q8NI35
Chain of Inadl_2, Q8NI35 (Q8NI35 238-335): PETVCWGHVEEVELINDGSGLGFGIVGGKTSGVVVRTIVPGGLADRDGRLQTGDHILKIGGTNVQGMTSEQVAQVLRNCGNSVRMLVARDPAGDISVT

NHERF4_1, Q86UT5-2 = target: NHERF4_1, Q86UT5-2
Chain of NHERF4_1, Q86UT5-2 (Q86UT5 other isoform, or with tags, fused parts or gaps): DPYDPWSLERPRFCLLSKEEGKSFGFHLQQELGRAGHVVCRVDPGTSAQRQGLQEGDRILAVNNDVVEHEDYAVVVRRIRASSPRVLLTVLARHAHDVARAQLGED

DFNB31_3, Q9P202 = target: T10, DFNB31_3, Q9P202
T10 sequence (Q9P202 811-907, limits assumed, looked up): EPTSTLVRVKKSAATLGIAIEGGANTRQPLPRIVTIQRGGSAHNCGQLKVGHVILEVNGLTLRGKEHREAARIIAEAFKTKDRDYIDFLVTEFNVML

GRID2IP_1, A4D2P6 = target: GRID2IP_1, A4D2P6
Chain of GRID2IP_1, A4D2P6 (A4D2P6 1-87): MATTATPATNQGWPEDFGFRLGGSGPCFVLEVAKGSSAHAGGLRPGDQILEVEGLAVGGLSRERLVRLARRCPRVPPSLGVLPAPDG

[1] = plain residues with an end cap or a label only (N-terminal biotin on a linker: ahx)
[2] = plain residues with an end cap or a label only (N-terminal biotin on a linker: gsgsgs; C-terminal amide)

Chain of GIPC2, Q8TF65 (Q8TF65 112-203): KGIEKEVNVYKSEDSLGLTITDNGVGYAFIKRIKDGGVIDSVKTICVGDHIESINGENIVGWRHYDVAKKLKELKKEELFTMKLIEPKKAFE
Chain of PDLIM1, O00151 (O00151 1-87): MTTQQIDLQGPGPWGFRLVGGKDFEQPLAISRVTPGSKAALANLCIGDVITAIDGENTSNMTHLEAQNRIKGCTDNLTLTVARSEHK
Chain of Inadl_10, Q8NI35 (Q8NI35 1673-1763): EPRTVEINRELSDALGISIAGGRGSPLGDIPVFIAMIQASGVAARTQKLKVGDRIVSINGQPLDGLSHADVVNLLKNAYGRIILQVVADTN
Chain of DLG2_2, Q15700 (Q15700 189-283): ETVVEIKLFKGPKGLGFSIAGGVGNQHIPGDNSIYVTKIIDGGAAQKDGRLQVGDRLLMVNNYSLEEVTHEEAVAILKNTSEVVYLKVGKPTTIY

B1: PDLIM4, P50479;P50479-2 (peptide)
chain: PSASCAVTAA
Q: B1 was tested. Which pKd (GIPC2, Q8TF65; [1]) did it give?
A: The pKd was “below the threshold”.

Q: And the pKd (Inadl_10, Q8NI35; [1])?
A: Its pKd is “below the threshold”.

Q: What about the pKd (DLG2_2, Q15700; [1]) of the same binder?
A: Its pKd is “below the threshold”.

Q: And the pKd (PDLIM1, O00151; [1])?
A: The pKd was “below the threshold”.

Q: What about the pKd (LIN7B, Q9HAP6; [1]) of the same binder?
A: Its pKd is “below the threshold”.

Q: What about the pKd (PDZRN4_1, Q6ZMN7; [1]) of the same binder?
A: The pKd was “below the threshold”.

Q: And the pKd (ARHGEF12, Q9NZN5-2; [1])?
A: The pKd was “below the threshold”.

Q: And the pKd (RHPN1, Q8TCX5; [1])?
A: The pKd was “below the threshold”.

Q: And the pKd (GRASP, Q7Z6J2; [1])?
A: The pKd was “below the threshold”.

Q: And the pKd (DLG1_2, Q12959; [1])?
A: Its pKd is “below the threshold”.

Q: What about the pKd (Inadl_6, Q8NI35; [1]) of the same binder?
A: The pKd was “below the threshold”.

Q: What about the pKd (TIAM2, Q8IVF5; [1]) of the same binder?
A: The pKd was “below the threshold”.

Q: And the pKd (RADIL, Q96JH8; [1])?
A: Its pKd is “below the threshold”.

Q: And the pKd (NHERF3_1, Q5T2W1; [1])?
A: The pKd was “below the threshold”.

Q: And the pKd (DLG1_1, Q12959; [1])?
A: The pKd was “below the threshold”.

Q: And the pKd (MAGI2_2, Q86UL8; [1])?
A: Its pKd is “below the threshold”.

Q: What about the pKd (MPP2, Q14168; [1]) of the same binder?
A: The pKd was “below the threshold”.

Q: What about the pKd (APBA2_2, Q99767; [1]) of the same binder?
A: Its pKd is “below the threshold”.

Q: And the pKd (NHERF3_3, Q5T2W1; [1])?
A: The pKd was “below the threshold”.

Q: And the pKd (ARHGAP21, Q5T5U3; [1])?
A: The pKd was “below the threshold”.

Q: What about the pKd (LDB3, O75112; [1]) of the same binder?
A: The pKd was “below the threshold”.

Q: What about the pKd (DLG5_1, Q8TDM6; [1]) of the same binder?
A: The pKd was “below the threshold”.

Q: And the pKd (Inadl_8, Q8NI35; [1])?
A: The pKd was “below the threshold”.

Q: And the pKd (Inadl_2, Q8NI35; [1])?
A: Its pKd is “below the threshold”.

Q: What about the pKd (NHERF4_1, Q86UT5-2; [1]) of the same binder?
A: The pKd was “below the threshold”.

Q: What about the pKd (DFNB31_3, Q9P202; [1]) of the same binder?
A: The pKd was “below the threshold”.

Q: What about the pKd (GRID2IP_1, A4D2P6; [1]) of the same binder?
A: Its pKd is “below the threshold”.

B2: DFNB31_int, Q9P202 (peptide)
chain: VSVDDVRSTSQGLSSY
Q: Which results are given for B2?
A: pKd (GIPC2, Q8TF65; [2]): below the threshold; pKd (Inadl_10, Q8NI35; [2]): below the threshold; pKd (DLG2_2, Q15700; [2]): below the threshold; pKd (PDLIM1, O00151; [2]): below the threshold; pKd (LIN7B, Q9HAP6; [2]): 3.48; pKd (PDZRN4_1, Q6ZMN7; [2]): below the threshold; pKd (ARHGEF12, Q9NZN5-2; [2]): below the threshold; pKd (RHPN1, Q8TCX5; [2]): below the threshold; pKd (GRASP, Q7Z6J2; [2]): below the threshold; pKd (DLG1_2, Q12959; [2]): below the threshold; pKd (Inadl_6, Q8NI35; [2]): below the threshold; pKd (TIAM2, Q8IVF5; [2]): 3.85; pKd (RADIL, Q96JH8; [2]): below the threshold; pKd (NHERF3_1, Q5T2W1; [2]): below the threshold; pKd (DLG1_1, Q12959; [2]): below the threshold; pKd (MAGI2_2, Q86UL8; [2]): below the threshold; pKd (MPP2, Q14168; [2]): below the threshold; pKd (APBA2_2, Q99767; [2]): below the threshold; pKd (NHERF3_3, Q5T2W1; [2]): below the threshold; pKd (ARHGAP21, Q5T5U3; [2]): below the threshold; pKd (LDB3, O75112; [2]): below the threshold; pKd (DLG5_1, Q8TDM6; [2]): below the threshold; pKd (Inadl_8, Q8NI35; [2]): below the threshold; pKd (Inadl_2, Q8NI35; [2]): below the threshold; pKd (NHERF4_1, Q86UT5-2; [2]): below the threshold; pKd (DFNB31_3, Q9P202; [2]): 4.02; pKd (GRID2IP_1, A4D2P6; [2]): below the threshold
